Reference: publication PMC7503162

Tests used:
[1] = target: Low-density lipoprotein receptor-related protein 1 (LRP1), purified from human placenta (human (purified from human placenta)) (UniProt Q07954); assay: SPR
[2] = target: Recombinant human LRP1 cluster IV Fc chimera protein (human); assay: SPR
[3] = target: Recombinant human LRP1 cluster II Fc chimera protein (human); assay: SPR
[4] = target: Recombinant human LRP1 cluster III Fc chimera protein (human); assay: SPR
LRP1 (Homo sapiens) = LRP1 (Homo sapiens) (UniProt Q07954); conditions: cited from earlier work
LRP1 (Homo sapiens), sequence (Q07954 20-4544): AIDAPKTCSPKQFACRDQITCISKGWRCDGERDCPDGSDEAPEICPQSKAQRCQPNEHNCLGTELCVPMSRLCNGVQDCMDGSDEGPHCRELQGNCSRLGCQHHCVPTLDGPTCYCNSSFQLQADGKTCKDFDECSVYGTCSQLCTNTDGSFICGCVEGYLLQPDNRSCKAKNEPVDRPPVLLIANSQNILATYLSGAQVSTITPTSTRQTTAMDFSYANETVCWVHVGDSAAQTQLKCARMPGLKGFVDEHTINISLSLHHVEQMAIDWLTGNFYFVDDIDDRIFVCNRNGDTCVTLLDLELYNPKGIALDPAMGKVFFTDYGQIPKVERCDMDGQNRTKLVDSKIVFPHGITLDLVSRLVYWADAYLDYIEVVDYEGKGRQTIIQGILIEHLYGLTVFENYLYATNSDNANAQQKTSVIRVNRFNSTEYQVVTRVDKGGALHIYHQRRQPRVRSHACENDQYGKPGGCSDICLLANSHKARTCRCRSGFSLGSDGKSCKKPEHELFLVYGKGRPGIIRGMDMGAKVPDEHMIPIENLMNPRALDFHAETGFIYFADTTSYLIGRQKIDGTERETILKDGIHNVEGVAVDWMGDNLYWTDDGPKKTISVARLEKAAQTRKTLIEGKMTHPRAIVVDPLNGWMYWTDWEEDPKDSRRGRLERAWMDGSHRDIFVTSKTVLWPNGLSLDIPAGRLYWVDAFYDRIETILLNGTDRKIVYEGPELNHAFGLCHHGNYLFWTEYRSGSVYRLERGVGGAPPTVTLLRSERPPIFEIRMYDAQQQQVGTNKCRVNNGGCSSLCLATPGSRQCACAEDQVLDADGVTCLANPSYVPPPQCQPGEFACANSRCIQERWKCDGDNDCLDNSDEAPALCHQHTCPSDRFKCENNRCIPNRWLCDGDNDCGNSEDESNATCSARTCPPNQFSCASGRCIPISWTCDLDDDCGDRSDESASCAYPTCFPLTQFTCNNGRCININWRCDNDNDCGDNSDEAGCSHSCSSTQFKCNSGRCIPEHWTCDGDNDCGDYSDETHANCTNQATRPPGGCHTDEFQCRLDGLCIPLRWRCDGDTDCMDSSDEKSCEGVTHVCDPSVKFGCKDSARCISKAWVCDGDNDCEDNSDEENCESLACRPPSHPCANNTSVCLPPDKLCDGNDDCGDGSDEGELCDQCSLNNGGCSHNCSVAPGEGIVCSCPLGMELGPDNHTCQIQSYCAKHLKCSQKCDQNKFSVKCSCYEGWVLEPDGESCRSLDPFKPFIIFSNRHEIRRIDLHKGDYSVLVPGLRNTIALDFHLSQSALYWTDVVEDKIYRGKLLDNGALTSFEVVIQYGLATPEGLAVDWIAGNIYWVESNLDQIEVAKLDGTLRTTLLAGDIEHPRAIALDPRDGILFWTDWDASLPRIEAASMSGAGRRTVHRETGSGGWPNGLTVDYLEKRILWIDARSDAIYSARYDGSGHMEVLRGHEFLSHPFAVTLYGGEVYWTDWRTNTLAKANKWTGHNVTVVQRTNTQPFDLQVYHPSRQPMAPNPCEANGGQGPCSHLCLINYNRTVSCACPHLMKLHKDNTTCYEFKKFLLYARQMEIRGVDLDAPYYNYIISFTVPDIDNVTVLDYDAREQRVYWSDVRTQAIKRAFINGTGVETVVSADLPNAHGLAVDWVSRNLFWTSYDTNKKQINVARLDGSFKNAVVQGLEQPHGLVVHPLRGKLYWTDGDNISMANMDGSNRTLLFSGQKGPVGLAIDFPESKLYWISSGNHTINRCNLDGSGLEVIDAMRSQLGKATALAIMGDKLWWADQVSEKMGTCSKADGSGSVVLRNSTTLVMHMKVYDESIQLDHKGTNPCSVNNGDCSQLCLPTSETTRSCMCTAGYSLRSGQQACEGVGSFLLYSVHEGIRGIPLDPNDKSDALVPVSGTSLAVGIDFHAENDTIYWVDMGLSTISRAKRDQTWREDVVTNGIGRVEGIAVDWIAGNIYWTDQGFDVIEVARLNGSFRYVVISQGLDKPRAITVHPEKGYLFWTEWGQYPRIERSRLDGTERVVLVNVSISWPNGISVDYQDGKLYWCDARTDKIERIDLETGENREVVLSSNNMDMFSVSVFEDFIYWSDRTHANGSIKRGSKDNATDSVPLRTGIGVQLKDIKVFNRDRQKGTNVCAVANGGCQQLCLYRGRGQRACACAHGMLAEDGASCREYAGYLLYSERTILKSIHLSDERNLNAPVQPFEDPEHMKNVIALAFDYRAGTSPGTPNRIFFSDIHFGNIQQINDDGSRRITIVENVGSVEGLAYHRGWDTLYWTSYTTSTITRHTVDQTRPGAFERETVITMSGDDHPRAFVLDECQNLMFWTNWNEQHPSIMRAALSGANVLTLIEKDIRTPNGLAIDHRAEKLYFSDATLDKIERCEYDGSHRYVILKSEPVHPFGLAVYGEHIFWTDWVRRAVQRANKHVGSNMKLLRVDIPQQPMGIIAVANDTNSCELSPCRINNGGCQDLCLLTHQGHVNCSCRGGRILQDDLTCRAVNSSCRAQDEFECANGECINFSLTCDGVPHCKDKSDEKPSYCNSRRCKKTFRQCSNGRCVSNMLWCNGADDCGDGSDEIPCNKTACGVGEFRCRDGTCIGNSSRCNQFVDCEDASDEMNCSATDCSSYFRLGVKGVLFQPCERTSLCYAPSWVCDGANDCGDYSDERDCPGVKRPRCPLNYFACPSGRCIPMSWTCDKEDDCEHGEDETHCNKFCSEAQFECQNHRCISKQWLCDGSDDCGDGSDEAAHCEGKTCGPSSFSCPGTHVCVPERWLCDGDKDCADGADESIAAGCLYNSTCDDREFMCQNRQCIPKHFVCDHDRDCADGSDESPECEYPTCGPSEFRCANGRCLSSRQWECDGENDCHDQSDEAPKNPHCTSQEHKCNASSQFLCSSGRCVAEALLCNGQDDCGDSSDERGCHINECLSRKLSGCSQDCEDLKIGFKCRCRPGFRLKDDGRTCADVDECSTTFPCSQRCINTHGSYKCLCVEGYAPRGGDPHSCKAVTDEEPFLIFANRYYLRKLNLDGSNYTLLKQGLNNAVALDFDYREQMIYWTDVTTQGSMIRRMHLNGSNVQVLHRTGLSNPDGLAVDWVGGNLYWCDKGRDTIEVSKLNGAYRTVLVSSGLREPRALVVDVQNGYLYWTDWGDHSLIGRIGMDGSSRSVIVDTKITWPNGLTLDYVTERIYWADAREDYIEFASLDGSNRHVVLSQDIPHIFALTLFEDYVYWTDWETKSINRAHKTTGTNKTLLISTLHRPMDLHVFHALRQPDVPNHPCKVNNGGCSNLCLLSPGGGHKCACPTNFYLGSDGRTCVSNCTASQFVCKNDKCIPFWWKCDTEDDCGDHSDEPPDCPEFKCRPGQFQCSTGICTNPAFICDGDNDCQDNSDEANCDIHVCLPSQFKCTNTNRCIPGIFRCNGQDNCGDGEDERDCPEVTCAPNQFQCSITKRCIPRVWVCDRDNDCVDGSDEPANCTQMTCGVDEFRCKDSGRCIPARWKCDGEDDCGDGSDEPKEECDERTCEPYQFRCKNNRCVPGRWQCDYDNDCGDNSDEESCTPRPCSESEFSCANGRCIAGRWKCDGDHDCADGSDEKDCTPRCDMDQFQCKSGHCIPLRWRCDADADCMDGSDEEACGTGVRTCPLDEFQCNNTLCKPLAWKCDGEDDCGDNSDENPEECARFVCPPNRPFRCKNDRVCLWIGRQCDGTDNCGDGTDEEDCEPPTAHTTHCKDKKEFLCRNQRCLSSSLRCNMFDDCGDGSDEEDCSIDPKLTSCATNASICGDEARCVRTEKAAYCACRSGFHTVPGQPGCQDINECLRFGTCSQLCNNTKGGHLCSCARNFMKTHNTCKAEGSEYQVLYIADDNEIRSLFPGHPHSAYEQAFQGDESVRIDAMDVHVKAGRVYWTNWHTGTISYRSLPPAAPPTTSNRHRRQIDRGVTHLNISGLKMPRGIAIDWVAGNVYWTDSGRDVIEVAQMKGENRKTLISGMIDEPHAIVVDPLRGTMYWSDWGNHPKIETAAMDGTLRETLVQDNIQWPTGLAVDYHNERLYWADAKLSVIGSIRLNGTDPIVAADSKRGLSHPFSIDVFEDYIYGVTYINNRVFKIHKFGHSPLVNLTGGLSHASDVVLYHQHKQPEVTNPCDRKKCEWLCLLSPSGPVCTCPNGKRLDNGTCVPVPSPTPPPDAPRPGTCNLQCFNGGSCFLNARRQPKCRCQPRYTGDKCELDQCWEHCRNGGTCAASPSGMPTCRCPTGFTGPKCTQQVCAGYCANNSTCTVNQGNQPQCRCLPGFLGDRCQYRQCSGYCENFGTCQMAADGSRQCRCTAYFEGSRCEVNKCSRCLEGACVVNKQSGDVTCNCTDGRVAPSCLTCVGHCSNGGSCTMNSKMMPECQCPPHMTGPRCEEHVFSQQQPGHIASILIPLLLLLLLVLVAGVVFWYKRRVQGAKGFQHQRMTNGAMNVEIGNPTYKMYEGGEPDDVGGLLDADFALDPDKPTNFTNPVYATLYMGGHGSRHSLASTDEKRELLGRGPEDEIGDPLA

Tissue inhibitor of metalloproteases 1 (TIMP-1), sequence (P01033 24-207): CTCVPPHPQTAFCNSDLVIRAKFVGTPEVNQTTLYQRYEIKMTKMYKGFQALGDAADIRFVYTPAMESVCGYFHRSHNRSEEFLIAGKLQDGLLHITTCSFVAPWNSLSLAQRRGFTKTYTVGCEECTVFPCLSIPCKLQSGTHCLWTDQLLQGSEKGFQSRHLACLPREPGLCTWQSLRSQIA
Low-density lipoprotein receptor-related protein 1 (LRP1), purified from human placenta (human (purified from human placenta)), sequence (Q07954 20-4544): as the sequence (Q07954 20-4544) above

Substance | ka2 (bivalent model, second step) [1] [s⁻¹] | kd1 (bivalent model, first step) [1] [s⁻¹] | kd2 (bivalent model, second step) [1] [s⁻¹] | Kd [2] [nM] | Kd [3] [nM] | Kd [4] [nM] | further results
Active MMP-1 (enzyme) | 0.0084 | 0.017 | 0.0015 |  |  |  | Kd [1]: 25 nM
Human His-tagged proMMP-1 (from UniProt P03956 20-469) (enzyme) |  |  |  | 358 | 169 | 34 | 
MMP-1/TIMP-1 complex (from UniProt P01033 24-207) | 0.012 | 0.026 | 2.7e-05 | 32 | 27 | 12 | ka1 (bivalent model, first step) [2]: 99000 M⁻¹ s⁻¹; ka2 (bivalent model, second step) [2]: 0.02 s⁻¹; kd1 (bivalent model, first step) [2]: 0.064 s⁻¹; kd2 (bivalent model, second step) [2]: 0.001 s⁻¹; ka1 (bivalent model, first step) [1]: 93000 M⁻¹ s⁻¹; ka1 (bivalent model, first step) [3]: 120000 M⁻¹ s⁻¹; ka2 (bivalent model, second step) [3]: 0.02 s⁻¹; kd1 (bivalent model, first step) [3]: 0.077 s⁻¹; kd2 (bivalent model, second step) [3]: 0.00085 s⁻¹; ka1 (bivalent model, first step) [4]: 200000 M⁻¹ s⁻¹; ka2 (bivalent model, second step) [4]: 0.019 s⁻¹; kd1 (bivalent model, first step) [4]: 0.079 s⁻¹; kd2 (bivalent model, second step) [4]: 0.00062 s⁻¹
MMP-1/TIMP-3 complex (from UniProt P03956) |  |  |  |  |  |  | Kd (LRP1 (Homo sapiens)): 5 nM
Tissue inhibitor of metalloproteases 1 (TIMP-1) (from UniProt P01033 24-207) (natural protein) |  |  |  | 391 | 129 | 39 | 
